Measurements as given in a protein production outcome set (Wang et al. 2014).

Experiment: label from the status in PepcDB records

| Sequence | protein production |
| --- | --- |
| MERFNMKLTRKKFTGNLLRSLAVLLLFSLVVCTAAGEELYFEPQEAVFSDTGSVASLSLYLDQAPSGLAGYKLNLSISDPSVAQITGVEFPSWSGINNSSSLPADLVQIKAVDLEEKINAGDLDVFLGTVTVESLASGEANLTVSVDRLDDDSENTISVTVREAKLTSGTTSENPVVSILPAESTLSSGASQVFEIRADKFTEGISGYDFNLTLENPAVGKFTNVEYPSWVGLSENSSMPNTSIKVKAVDTNDVVKAGDENVLLANVTFVAETPGESEISLTFNRLDDDSGSNINAVAEASSVKVQGSSTLPVAKFTATPTSGDSPLTVQFTDESTGSPTAWTWDFGDGATATEQSPSHTYTSAGNYTVNLTVTNDGGSDSEVKTDYITVSESSTPTEPEPVAAFTADVTNGTVPLTVNFTDQSTEAPTSWAWDFDNDGTVDSTEQNPSYTYTSAGTYTVNLTVANAEGSDSEVKIDYITVSESSTPTEPEPVAAFIADVTNGTVPLTVNFTDQSTGSPTSWLWDFGDNTSATEQNPSHTYNSAGNYTVNLTVISESGNSSEVKADYITVSESSTPTEPEPVAAFTADVTNGTVPLTVNFTDQSTGMPTSWAWDFDNDGNMDSTEQNPSYTYTAEGNYTVNLTVSSEVGSDSEVKVEYITVTDSSTTPEARPDLIVSSIIPPSSITANTSCNIGATISNTGESDAGTFNATLSVNGAVVDTHAVSGIVSGSSATVNFSWKPVAAGYYSVKVSADAGNVIAESDETNNELADCIKVEEASSGSQSQNGSSSVSLNVTIVPVVCFEVSPSALKFGELSAGQTSEPQLLTLKNCGVSGIKVTAEVSDSSAEDNLFGLGLLLDSQIWSDYCNVIGSNSQENATAALHVPSDYTGTGNKKGTITFWAEVAE | failed |
| MERIALPRRTLGARRREVPVTPDTLLPLLAVLPPLAYGLLALFCARAWFGRQRPGPGHTPPVTILKPVKGMDAESFENFASFCRQEYGGPWQMLFACASADDPVIPVIRRLMAEFPDRDIDLVVDGTIHGPNYKVSNLINAFPRARHDILIVCDSDIRVTSDYLGEVTAPFADPAVGLVTSLYRSPGVRGAATALEAMGFTVEMVPNVMVAQRLEGLSFALGASMAVRRTALESIGGFPALTHYLADDYQLGNKIHRAGWRLELSDCFVESVMHRENLTTVLSRQLRWCRTMRASRPGGYLGSGITQPVPLACLALLVSGCSAAGWGAVILLYLTRALVAVTFSRRYLRDGIFPRWLWLLPLRDILAFATWALSFAGNRVRWRGNLFRLLPGGKIVEIG | failed |
| MERIIQQTDYDALSCKLAAISVGYLPSSGLQRLSVDLSKKYTEWHRSYLITLKKFSRRAFGKVDKAMRSSFPVMNYGTYLRTVGIDAAILEFLVANEKVQVVNLGCGSDLRMLPLLQMFPHLAYVDIDYNESVELKNSILRESEILRISLGLSKEDTAKSPFLIDQGRYKLAACDLNDITETTRLLDVCTKREIPTIVISECLLCYMHNNESQLLINTIMSKFSHGLWISYDPIGGSQPNDRFGAIMQSNLKESRNLEMPTLMTYNSKEKYASRWSAAPNVIVNDMWEIFNAQIPESERKRLRSLQFLDELEELKVMQTHYILMKAQW | not failed |
| MERITDVPESPAQSADPARVNDYDSFAEAYSAETENNLVNAYYARPAMLALAGDVAGRRILDAGCGSGPLSAALRDRGAVVTGIDASAGMLALARRRLGDDVALHVVDLSDRLPFDDGAFDDVVASLVLHYLEDWGPTLAELRRVLRPGGRLIASVDHPFVAYTFQDPRPDYFATTSYTFDWTFNGQSVPMKFWRKPLHAMTDAFTTAGFRLSVISEPQPDPAAIELFPDAFHDLSTKTCFLFFVVEVPPSATGSDDY | failed |
| MERIVMPANYVHTRTTPFWTKETAPASIWRRHLDAGTRQGVYPRLCVMQGTIRYYGYADETSPEPVETLTIEAGQFGVFPPEKWHRIEALSDDTLFNVDFYVDPKILIEGLEHHHHHH | failed |
| MERNRRRNADNNTVVDQGGVFFDGCDTDEAFGPSSRDVPFQHDSVKSKPNLYGGG | not failed |
| MERRLAAILIADVVGYSRLSQIDEEGTRARFQADQNDVFEPAIERHHGRLVKTMGDGLLVEFQSVVDALRCAVEVQQLKATQSAASLPEHRLEFRIGINLGDIIVEGEDIQGDGVNIADRIQALAEPGGIAISGTTYDQVKSKIPVGFASLGEQRLKSITEPIRVYRILLDPTAAGKTLKTRRRLPRRRLVAGIAAAIVVLALAGAALWWQPWMPAKPPGPGERFAYPLPDRPSVAVLPFINVSGDSEHDHLAEGLTDDLITELSKVSGLFVIARHSVFAIQGSVGKIQDVATELGVQYVLEGTLQRAGPRLRINVKLIDAVSGLSLWAERYDRQYADLFAVQDDVIGKIISALSVKLSARERDQLARIPTENLEAYDFYMRAEQEGFILRDVDTYRRTLSFYQKAIDLDPGFANAHAGIARVAVDVWRNDYNYLWSAAVARKIAYDAAGQALKLDPNNARAHTVLALLQWVDGRETEAKNSANMAVAMEPNDAEAAANLALILVHTGSSGQAITEMEKALRLDPSPASSFQLLAGIVFYTAGDDQRAISLIEPTLDSLPKVEPAREYLAAAYADQGNETKAAAETAKLLELFPEGNLTYYGYLYDYWRDGDLQRHLAALRKAGIPEWPFGFTGSQADRLGEADLRNLVDGKSWTGKHKNGTDFTQYFDRAGNTAYRSANTNITGIVEVRGDSLCEKFEGYFLDRMVCGYVYRNTSGEQRDRPYVHVTPRALTFFSPTP | failed |
| MERSIGFGQALKLFWKNYVNFKGRSRRSEYWFMALWNIIFMMPALILYIIGLIMTVSGAASSSEELVAIGVILLFLSICYALIYSLATLIPGWALLIRRFHDTGRTMLMPLIYLGVIVISYPVLFVVNIQDPEYNNPVYIIFFAIIFLVYIALGIYMLVICCLDSERKTNKYGASHKYGNHIKSSTNTYANQDAPIHEDTNVKHVNSEENAFSEEVNTSDENATKKDDNFKY | failed |
| MERTLSDSQIRYIKARERRNLRGAQAFICLFLSLFVLILLQGVWLLISPRLACALLVPWAIFLWWWVFHRLKGQQSEVAARTQWLQGQFSATWVSSHRNGHFSYSFGDYPIAACCRLNNLFNEKRLDLHTRYRVEAALLTCSQTASHSYYLFGDTLVPVTRAPETDEQPGS | failed |
| MERVGTPEEERQAGPVLPTSLESDSSKRTSWGFLITGVVGGALLTVYAVATPFITPALRKVCLPFVPATSKQVENVVRMLRHRRGPLVDIGSGDGRIVIAAAKEGFPAVGYELNPWLVWYSRYRAWRAGVHGSAKFYISDLWKVTFAQYSNVVIFGVPQMMPQLEKKLELELEDGARVIACRFPFPRWTPDHTTGEGIDTVWAYDMSAQRGRGGRPNQEWVGQKNLSETAGLQASSSETRSKLLDVE | failed |
| MESDSEMVPFPQLPMPIENNYRACTIPYRFPSDDPKKATPNEISWINVFANSIPSFKKRAESDITVPDAPARAEKFAERYAGILEDLKKDPESHGGPPDGILLCRLREQVLRELGFRDIFKKVKDEENAKAISLFPQVVSLSDAIEDDGKRLENLVRGIFAGNIFDLAVKTWFHDHGSLMTWKTSKPNGSISLGRRSLICFALPFNASFRLQCLFSELKYTLNCSSSSSFPFKVVLAANELPSINDITCTELTEILSQLKDENGQLLGVDTSKLLIANSGNDLPVIDLSRVSQELAYLSSDADLVIVEGMGRGIETNLYAQFKCDSLKIGMVKHLEVAEFLGGRLYDCVFKFNEVQS | not failed |
| MESIWRIATGQDPSREDYEGIEFWSNPERSGWLTKQGDYIKTWRRRWFVLKRGKLLWFKDQAAAGIRGSTPRGVISVGDCLTVKGAEDVVNKPFAFELSSGSYTMFFIADNEKEKEEWINSIGRSIVQHSRSVTDSEVLDYDHRR | failed |
| MESKTNYTIVGLIVLILTAGLLSAGLWLSVGFNQKEYTSYTVYLKESVSGLSVESPVKFNGVQVGYVKEIKLNKNDPRQVELLLNIEKSTPITTSTSATLITQGITGVTYVGLSAGSSELTPLRKMPGEPYPVIPSKPSLLNQLDAVLKEVAENVGAVSEKAQLIFNEENADNVRKSLANLERITEIIADKGQTIDSSLNNLDVFVANMANASKQFPQLIKDLKTGISKFKSLADNMSAAGKDVSKTMIAGKNTIDQISQQAIPPAVILLRRLNAISANLEKVSNEMRQNPSVIIRGTKAPKLGPGELEHHHHHH | failed |
| MESLDSVSIAILLGSVLVMAGILSSLLALRFGAPLLLVFLVIGILAGESGPGGINFNDLGTTYLVGSVALALILFDGGLKTRFSSIKAVLAPSMGLATVGVLLTALVTAPVARYALDLSWVEALLASAVVASTDAAAVFLLVHAQGLRLRPRVGATLEVESGTNDPFAVFLTLMLVELITRGESSILHVLIEFVREAALGAVIGVVGGRVVVMALNRVALPQGLHAPFVTTAALVVFGAAQMSHASGFLAVYLAGMIIGNQPTRAHNSVVAFLDAATWLAQIVMFVLLGLLVSPQRLMGSIGPAVVIALALMLVARPLAVFICLAPFRFNWRERLFIAWVGLRGAVAIFLASIPMLVGLSKAYLYFDVAFVVVLISLMLQGWTLAPAARKLLVALPRSDRGPRRIELDLPGQLEQQLVGYAVRPKSLYLKRGLIPSWSKPTLVIRDQRILTPEEAEPVAPGDYVYLLAPPEKAAALDRFFVDMPPSTAPDPHLLGDFIVPGETSLGDLAAAYGISVPPGQEALTLADYFDIYLDQAPMVGATLPLDSIVLVARSLGGGRVNVVGLRLPEEEDEAPPPTRLAKVRTKLSEVWSLLAGV | failed |
| MESMSMNHRVVRHCHNKKLQQSRYSPYSKENIISTIEKEMQKDEAIRLGVELSLFVAETMVLLSDNLRSMLLFCLWVLTNAECTYFTDPVVGRLHCVMLYVLETYIKPKNGVYLADVKSNQWEVFVKSCKSFVFGIRELDRIVLILGKRESSSCEVVKTSDFEHCNQELKKLEETLRSAKDVSEANGFAREVIKSNILCLWKSLFETSQPKVINLKNRTLDMFKPLLNQAREITCSSLIASLHI | failed |
| MESSEEDDEYPFIESITPQSKIDSVHQSLTEKGIRKLCCELMDLKDAVENMCGDMRTKYLAFLRISEEAVEMEHELVELRKHISSQGILVQDLMAGVCREMDDWNRLPGDVHDAEVEEDPLPNEVTDPKSEFLEKIDLLLAEHKVDEALEAMDAEERSSPDLKGSVEMSSYKSAFMERKAVLEDQLLRIAKQPSICVAELKHALIGLIRLGKGPSAHQLLLKFYATSLRRRIEAFLPSCLTCPNTFPATLSKLVFSNISVATKESAAMFGDDDNPAYSNKVVQWAEREVEYLVRLVKENASPSETASALRAASICLQDCLNYCKVLEPQGLFLSKLFLVLFRPYVEEVLELNFRRARRVIFDLNETDEGLESPSDFVTILSEFAIASDTMMTDCSIRFMQIVQDILEQLTHLVVLHFGESVLTRILQLYDKYIDFLIKALPGHSDEDGLPELQDNTVLARAETDSEQLALLGAAFTILDELLPRSLVKVWKLQIENGGGEGENSAALNSSAAPELKEWKRHMVQAFDKLRNYFCLQFVLSFIYSREGLTRLDALIYLTETPDDLHLPSLPFQALFSKLQQLAIIAGDVLLGKEKLQKILLARLTETVIIWLSNEQEFWSAFEDESNPLQPSGLQQLILDMNFTVEIARFAGYPFKVVQNHASVVINRAINIFSERGINPQSSLPKTEWFTEAAKSAINRLLMGSEDASEPEEYECEEEEEDDHHIVLPEMDDDSDSEDTSSLSTVDSFESFASASMADLESPSFTDSES | failed |
| MESSPLISAGLPIALFIIMIGIGMTLTLRDFRQVAVYPKGMIVGTFAQILLMPVVAFGLAWLFGVSPAIAVGLVIIAACPGGTTSNLFVLLARGNIALSIVLTVSASLITILTLPLFTNMALQHFMGTEESISLPVGKTIAMLVVIVLLPVAIGMLVRTRKPELARKAESLVSIFGGIVLAVLVVALLYGVRDQMWDLLKQAGPSTIALNVAGIALGLLAGRVAGLTQRESLAVAVELGVKNGTIGLMVTLTLLESSTMSIPAAVYGVLMFPIGFLLAMYGRKVIPKSNVAHAAGEA | failed |
| MESVAFIQWCLEHLNYWTITLLMTIESSFIPFPSEVIIPPAAYKAAVNDELNIYLVVLFATIGADIGALINYYLAKWLGRPIIYKFANSRIGHMCLIDEAKVQHAESYFDKHGALSTFIGRLIPAVRQLISIPAGLARMKMHTFLLYTTIGAGLWNTILAVIGYYLSTVPGIESEEQLIAKVTEYSHEIGYCFIAIGIFIVGFLVYKGMKKK | failed |
